The record followed here is US20120077731A1 (Ablynx, published 2012).

Several values for one entry are separate records, joined by “and”; a condition that tells them apart may be missing. Identical values can stand only once.

For experiment [1], the target named is T1, Human membrane IL-6R on cells (human, UniProt P08887 20-468).
T1 sequence (looked up): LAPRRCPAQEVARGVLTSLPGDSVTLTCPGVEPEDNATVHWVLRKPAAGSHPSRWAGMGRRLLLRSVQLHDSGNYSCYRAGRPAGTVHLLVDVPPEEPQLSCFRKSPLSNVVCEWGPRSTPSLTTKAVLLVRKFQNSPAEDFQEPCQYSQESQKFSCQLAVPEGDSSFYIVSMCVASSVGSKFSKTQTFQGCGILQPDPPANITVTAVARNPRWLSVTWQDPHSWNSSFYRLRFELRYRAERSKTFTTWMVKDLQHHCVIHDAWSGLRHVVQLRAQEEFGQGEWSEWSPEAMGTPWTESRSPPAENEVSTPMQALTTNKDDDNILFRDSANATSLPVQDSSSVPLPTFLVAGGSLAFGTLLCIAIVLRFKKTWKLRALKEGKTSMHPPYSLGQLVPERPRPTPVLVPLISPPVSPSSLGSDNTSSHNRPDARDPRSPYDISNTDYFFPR
The experiment is described as follows: cell-based or functional assay.

Experiment [2] addresses T1, Human membrane IL-6R on cells. The experiment is described as follows: cell-based or functional assay. This is another data set of the same source.
Experiment [3] shares this target. The experiment is described as follows: cell-based or functional assay. The source holds these as a separate data set.
The target of experiment [4] is T2, Human soluble IL-6R (human, UniProt P08887 20-358).
T2 construct: Soluble recombinant form; biotinylated in some assays; also called hIL-6R; human IL-6R
T2 sequence (looked up): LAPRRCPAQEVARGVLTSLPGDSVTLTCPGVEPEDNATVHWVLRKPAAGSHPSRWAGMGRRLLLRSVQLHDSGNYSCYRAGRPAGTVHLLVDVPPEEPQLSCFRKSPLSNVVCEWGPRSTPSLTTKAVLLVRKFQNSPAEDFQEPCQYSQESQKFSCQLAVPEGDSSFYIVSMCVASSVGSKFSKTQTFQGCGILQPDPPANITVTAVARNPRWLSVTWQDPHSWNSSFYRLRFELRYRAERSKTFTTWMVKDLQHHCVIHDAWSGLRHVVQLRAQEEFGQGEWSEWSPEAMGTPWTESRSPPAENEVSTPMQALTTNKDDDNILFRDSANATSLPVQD
The experiment is described as follows: Biacore off-rate, periplasmic extract. For orientation: In SPR one partner is held on a chip, and binding of the other changes the refractive index at the surface.

Experiment [5] deals with T2, Human soluble IL-6R. In words: SPR Biacore 3000, IL-6R amine-coupled to CM5.
Method: (§1) Nanobodies were injected at 5 different concentrations between 1 and 50 nM. Flow rate was 45 μl/min in all experiments. Association and dissociation phase were 3 and 10 min, respectively. The chip was regenerated using Glycine/HCl pH 1.5.
Experiment [6] has as its target T2, Human soluble IL-6R. The experiment is described as follows: Alphascreen, inhibition of bio-IL-6 binding to IL-6R. Background: Alpha assays give light when donor and acceptor beads are brought close together.
Method: (§2) Finally streptavidin donor beads were added and after 1 hour incubator the plate was read on the Envision microplate reader.
Experiment [7] has as its target T2, Human soluble IL-6R. The experiment is described as follows: summary table C-13 of Nanobody characteristics, Kd on IL-6R.
Method: as §1
Experiment [8] addresses T2, Human soluble IL-6R. The experiment is described as follows: inhibition of the IL-6/IL-6R interaction, summary table C-13.
Method: as §2
Experiment [9] addresses T2, Human soluble IL-6R. The experiment is described as follows: competition for IL-6R, competitor reference Fab, summary table C-13.
Experiment [10] addresses T2, Human soluble IL-6R. The experiment is described as follows: Alphascreen, 100 nM Nanobody, 0.4 nM bio-IL-6R; competitor: reference Fab.
Another experiment concerns the target T3, Mouse IL-6R (mouse, UniProt P22272 20-364, limits assumed).
T3 construct: also called mouse sIL-6R
T3 sequence (looked up): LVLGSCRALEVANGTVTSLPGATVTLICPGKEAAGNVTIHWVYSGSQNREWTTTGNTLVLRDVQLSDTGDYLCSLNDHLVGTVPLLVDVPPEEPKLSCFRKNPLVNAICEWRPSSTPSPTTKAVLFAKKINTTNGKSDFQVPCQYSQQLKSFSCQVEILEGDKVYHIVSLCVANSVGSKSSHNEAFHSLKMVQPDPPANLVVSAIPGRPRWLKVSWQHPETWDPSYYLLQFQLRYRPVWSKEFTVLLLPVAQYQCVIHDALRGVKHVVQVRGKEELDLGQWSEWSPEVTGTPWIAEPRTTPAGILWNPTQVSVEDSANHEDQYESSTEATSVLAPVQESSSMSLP
In words: ELISA: plate coated with 1 µg/ml mouse IL-6R, 500 nM Nanobody, anti-myc + anti-mouse-HRP. (In an ELISA, binding on a coated surface is turned into a signal by an enzyme label.)

What is called koff is the first-order rate constant of dissociation. A high value points to a short-lived complex. By Kd is commonly meant the concentration at which binding is half-saturated. A word on the kon: it is the rate constant with which the complex forms. What is called IC50 is the midpoint of a concentration-inhibition curve. A low value points to higher potency.

Method for Mouse IL-6R: Detection was performed with anti-myc and anti-mouse-HRP as first and second antibody respectively.

B1: IL6R11 (VHH)
VHH: EVQLVESGGGLVQAGGSLRLSCAASGFTFDDYAIGWFRQAPGKEHEGVSCISSSDGSTYYADSVKGRFTISSDNAKNTVYLQMNSLKPEDTAVYYCAAERDVPARSLCGSYYWYDYRGQGTQVTVSS
notes: also called PMP35E11; not shown: C-terminal c-myc and (His)6 tags
B1: in experiment [1], the “IC50 (nM), XG-1 cell proliferation” value came to 5.4 nM. The “IC50 (nM), TF1 cell proliferation” value in experiment [2] turned out to be 9.9 nM. Also, the “IC50 (nM) XG-1” value in experiment [3] was 5.4 nM. Also, the koff with Human soluble IL-6R [4] was 0.000417 s⁻¹; with Human soluble IL-6R [5] it was 0.00034 s⁻¹ and 0.000396 s⁻¹ and 0.000417 s⁻¹. Besides, the Kd was 0.9 nM and 1.9 nM with Human soluble IL-6R [5]; 0.9 nM with Human soluble IL-6R [7]. Moreover, the kon with Human soluble IL-6R [5] was 391000 M⁻¹ s⁻¹ and 215000 M⁻¹ s⁻¹. Moreover, the values for the IC50 with Human soluble IL-6R [6] and in the experiment with Human soluble IL-6R [8] were 0.158 nM and 0.16 nM, respectively. The “Ref Fab competition (%)” value with Human soluble IL-6R [9] amounted to 40%. Besides, the “Residual reference-Fab binding to IL-6R (%)” value with Human soluble IL-6R [10] worked out at 40%. The binding result with Mouse IL-6R is on record as “no binding (tested: 500 nM)”.

B2: IL6R05 (VHH)
VHH: EVQLVESGGGLVQPGGSLRLSCAASGFTFGSYDMSWVRQAPGKGPEWVSAINSGGGSTYYADSVKGRFTISRDNAKNTLYLQMNSLKPEDTAVYYCATDWRYSDYDLPLPPPGDYWGQGTQVTVSS
notes: also called PMP32E10; not shown: C-terminal c-myc and (His)6 tags
B2: the “IC50 (nM), XG-1 cell proliferation” value in [1] was 7.3 nM. Also, the “IC50 (nM), TF1 cell proliferation” value in experiment [2] came to 38 nM. Moreover, the “IC50 (nM) XG-1” value in [3] stood at 7.3 nM. Further, the koff is 0.00127 s⁻¹ in the experiment with Human soluble IL-6R [4]; 0.00141 s⁻¹ and 0.00127 s⁻¹ with Human soluble IL-6R [5]. Further, the Kd with Human soluble IL-6R [5] and with Human soluble IL-6R [7] was 9.8 nM in each case. This molecule also registered a kon with Human soluble IL-6R [5] of 144000 M⁻¹ s⁻¹. The IC50 was 0.626 nM in the experiment with Human soluble IL-6R [6] and 0.63 nM with Human soluble IL-6R [8]. The “Ref Fab competition (%)” value in the experiment with Human soluble IL-6R [9] was determined as 64%. Also, the “Residual reference-Fab binding to IL-6R (%)” value with Human soluble IL-6R [10] was determined as 64%. The binding result in the experiment with Mouse IL-6R is on record as “no binding (tested: 500 nM)”.

B3: IL6R08 (VHH)
VHH: EVQLVESGGGLVQPGGSLRLSCVASGFSLDYYVIGWFRQAPGKEREGVSCISSSDGSTYYADSVKGRFTISRDNAKNTVYLQMNSLKPEDTAVYYCAADLLRTPEFCVDSAPYDYWGQGTQVTVSS
notes: also called PMP34A12; not shown: C-terminal c-myc and (His)6 tags
As for B3, the “IC50 (nM), XG-1 cell proliferation” value in experiment [1] is 36.6 nM. The “IC50 (nM), TF1 cell proliferation” value in experiment [2] turned out to be 24.3 nM. Also, in experiment [3], the “IC50 (nM) XG-1” value was determined as 36.6 nM. In the experiment with Human soluble IL-6R [5], this molecule came in with a Kd of 10.2 nM, a koff of 0.00197 s⁻¹ and a kon of 194000 M⁻¹ s⁻¹. In the experiment with Human soluble IL-6R [6], this molecule showed an IC50 of 1.18 nM. The Kd with Human soluble IL-6R [7] is 10.2 nM. For the same molecule, half-maximal inhibition with Human soluble IL-6R [8] (IC50) required 1.18 nM. Also, the “Ref Fab competition (%)” value in the experiment with Human soluble IL-6R [9] came to 99%. Further, the “Residual reference-Fab binding to IL-6R (%)” value with Human soluble IL-6R [10] was 99%. The binding result with Mouse IL-6R is “no binding (tested: 500 nM)”.

B4: IL6R07 (VHH)
VHH: EVQLVESGGGLVQPGGSLRLSCAASGFTLDYGAIGWFRQAPGKEREGVSCISSSTGSTYYADSVKGRFTISRDNGKNTVYLQMNSLKPEDTAVYYCAADKMWSPCLVAANEEALFEYDYWGQGTQVTVSS
notes: also called PMP33A3; not shown: C-terminal c-myc and (His)6 tags
Regarding B4, the “IC50 (nM), XG-1 cell proliferation” value in [1] came out at 50.5 nM. Also, the “IC50 (nM), TF1 cell proliferation” value in experiment [2] came to 375 nM. In experiment [3], the “IC50 (nM) XG-1” value is 50.5 nM. Besides, the koff in the experiment with Human soluble IL-6R [4] and in the experiment with Human soluble IL-6R [5] was 0.000242 s⁻¹ throughout. The IC50 with Human soluble IL-6R [6] and in the experiment with Human soluble IL-6R [8] was 1.44 nM each time. Also, in the experiment with Human soluble IL-6R [9], the “Ref Fab competition (%)” value came out at 80%. Moreover, the “Residual reference-Fab binding to IL-6R (%)” value with Human soluble IL-6R [10] stood at 80%. Besides, the binding result in the experiment with Mouse IL-6R is on record as “no binding (tested: 500 nM)”.
